{
  "source": "paper PMC10219982",
  "origin": "cited, not measured here",
  "target": "Follistatin (UniProt P19883)",
  "sequence (P19883 30-344)": "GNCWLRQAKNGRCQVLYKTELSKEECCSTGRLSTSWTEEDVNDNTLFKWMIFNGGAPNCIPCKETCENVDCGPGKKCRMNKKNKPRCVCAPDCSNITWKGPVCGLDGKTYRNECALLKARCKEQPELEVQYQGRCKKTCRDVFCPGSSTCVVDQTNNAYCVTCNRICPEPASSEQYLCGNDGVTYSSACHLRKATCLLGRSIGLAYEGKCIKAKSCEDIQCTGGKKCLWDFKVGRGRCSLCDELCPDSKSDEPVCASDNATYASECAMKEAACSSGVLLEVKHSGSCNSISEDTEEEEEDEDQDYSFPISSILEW",
  "test": "SPR",
  "data": [
    {"substance": "BMP4 (from UniProt P12644)", "values": [
      {"measurement": "Kd", "value": 22.5, "unit": "nM"}
    ]}
  ]
}
